Results taken from patent US20200024330A1.

Legend:
Experiment in all cases: cell-based or functional assay
[1] = target: HIV-1 Env of isolate MGRM-G-017 (clade G pseudovirus) (HIV-1)
[2] = target: HIV-1 MGRM-C-013 Env (HIV-1)
[3] = target: HIV-1 Env of isolate MGRM-D-012 (clade D) (HIV-1)
[4] = target: HIV-1 Env of pseudovirus MGRM-Chronic-B-003, clade B (HIV-1)
[5] = target: HIV-1 Env of pseudovirus MGRM-Chronic-B-001, clade B (HIV-1)
[6] = target: HIV-1 Env of isolate MGRM-G-011 (clade G pseudovirus) (HIV-1)
[7] = target: HIV-1 MGRM-F1-023 Env (pseudovirus) (HIV-1)
[8] = target: HIV-1 IAVI-C18 envelope protein (Env) on pseudovirus (HIV-1)
[9] = target: HIV-1 MGRM-F1-006 Env (pseudovirus) (HIV-1)
[10] = target: HIV-1 92RW020 envelope glycoprotein (Env) (HIV-1)
[11] = target: HIV-1 Env of pseudovirus 92BR020, clade B (HIV-1)
[12] = target: HIV-1 Env of isolate MGRM-G-019 (clade G pseudovirus) (HIV-1)
[13] = target: HIV-1 Env of isolate 92TH021 (HIV-1)
[14] = target: HIV-1 MGRM-A-003 envelope glycoprotein (Env) (HIV-1)
[15] = target: HIV-1 Env of pseudovirus 93TH305, clade B (HIV-1)
[16] = target: HIV-1 Env of isolate MGRM-AE-003 (HIV-1)
[17] = target: HIV-1 93IN905 envelope protein (Env) on pseudovirus (HIV-1)
[18] = target: HIV-1 Env of isolate MGRM-D-018 (clade D) (HIV-1)
[19] = target: HIV-1 Env of isolate MGRM-F1-020 (subtype F), on pseudovirus (HIV-1)
[20] = target: HIV-1 Env of isolate MGRM-F1-012 (subtype F), on pseudovirus (HIV-1)
[21] = target: HIV-1 Env of isolate 92UG001 (HIV-1)
[22] = target: HIV-1 JR-CSF Env D477A (HIV-1 (isolate JR-CSF)) (UniProt P20871)
[23] = target: HIV-1 Env of isolate MG RM-A-006 (HIV-1)
[24] = target: HIV-1 Env of isolate MGRM-G-028 (HIV-1)
[25] = target: HIV-1 JR-CSF Env L125A (HIV-1 (isolate JR-CSF)) (UniProt P20871)
[26] = target: HIV-1 Env of isolate MGRM-C-013 (HIV-1)
[27] = target: HIV-1 Env of isolate THR0.18 (HIV-1)
[28] = target: HIV-1 Env of isolate MGRM-AE-008 (CRF01_AE), on pseudovirus (HIV-1)
[29] = target: HIV-1 Env of isolate MGRM-AG-001 (CRF_AG), on pseudovirus (HIV-1)
[30] = target: HIV-1 Env of isolate 92RW008 (HIV-1)
[31] = target: HIV-1 JR-CSF Env N160K (HIV-1 (isolate JR-CSF)) (UniProt P20871)
[32] = target: HIV-1 JR-CSF Env R476A (HIV-1 (isolate JR-CSF)) (UniProt P20871)
[33] = target: HIV-1 Env of isolate 92WR024 (HIV-1)
[34] = target: HIV-1 JRCSF envelope glycoprotein (Env) on pseudovirus (HIV-1) (UniProt P20871)

Chain of 1443_C16 (PG16) (TCN-116) (antibody) (VH): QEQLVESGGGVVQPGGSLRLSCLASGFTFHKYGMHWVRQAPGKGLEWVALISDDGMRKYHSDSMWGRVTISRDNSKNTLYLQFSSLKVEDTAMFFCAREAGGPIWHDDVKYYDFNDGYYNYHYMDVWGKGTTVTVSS
Chain of 1443_C16 (PG16) (TCN-116) (antibody) (VL): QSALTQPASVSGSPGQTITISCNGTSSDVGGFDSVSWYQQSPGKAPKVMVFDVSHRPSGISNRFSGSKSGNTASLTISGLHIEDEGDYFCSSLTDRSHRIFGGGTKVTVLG

Substance	IC50 (µg/ml), pseudovirus neutralization [1] [µg/mL]	IC50 [2] [µg/mL]	IC50 (µg/ml), pseudovirus neutralization [3] [µg/mL]	IC50 (µg/ml), pseudovirus neutralization [4] [µg/mL]	IC50 (µg/ml), pseudovirus neutralization [5] [µg/mL]	IC50 (µg/ml), pseudovirus neutralization [6] [µg/mL]	IC50 (µg/ml), pseudovirus neutralization [7] [µg/mL]	neutralization IC50 [8] [µg/mL]	IC50 (µg/ml), pseudovirus neutralization [9] [µg/mL]	IC50 (µg/ml), pseudovirus neutralization [10] [µg/mL]	IC50 (µg/ml), pseudovirus neutralization [11] [µg/mL]	IC50 (µg/ml), pseudovirus neutralization [12] [µg/mL]	IC50 (µg/ml), pseudovirus neutralization [13] [µg/mL]	IC50 (µg/ml), pseudovirus neutralization [14] [µg/mL]	IC50 (µg/ml), pseudovirus neutralization [15] [µg/mL]	IC50 (µg/ml), pseudovirus neutralization [16] [µg/mL]	neutralization IC50 [17] [µg/mL]	IC50 (µg/ml), pseudovirus neutralization [18] [µg/mL]	IC50, pseudovirus neutralization [19] [µg/mL]	IC50, pseudovirus neutralization [20] [µg/mL]	other results
4E10 (antibody)	1.14	2.1	1.13	3.5	1.46	1.44	0.44	> 50	1.01	4.54	> 50	6.53	1.17	5.94	12.3	0.34	1.55	3.9			
5114_A19 (PGT-128) (antibody)																			0.355	0.007	IC50 [21]: > 50 µg/mL; Fold IC50 increase relative to wild-type [22]: 0.7 fold; neutralization IC50 [23]: > 50 µg/mL; IC50, pseudovirus neutralization [24]: 0.008 µg/mL; Fold IC50 increase relative to wild-type [25]: 2.9 fold; IC50 [26]: > 50 µg/mL; IC50 [27]: > 50 µg/mL; IC50, single-round pseudovirus neutralization [28]: > 50 µg/mL; IC50, single-round pseudovirus neutralization [29]: 4.73 µg/mL; neutralization IC50 [30]: 0.003 µg/mL; Fold IC50 increase relative to wild-type [31]: 1 fold; Fold IC50 increase relative to wild-type [32]: 0.7 fold; neutralization IC50 [33]: > 50 µg/mL
5343_B08 (PGT-135) (antibody)																			0.168	0.01	IC50 [21]: > 50 µg/mL; Fold IC50 increase relative to wild-type [22]: 1.5 fold; neutralization IC50 [23]: > 50 µg/mL; IC50, pseudovirus neutralization [24]: > 50 µg/mL; Fold IC50 increase relative to wild-type [25]: 0.9 fold; IC50 [26]: > 50 µg/mL; IC50 [27]: > 50 µg/mL; IC50, single-round pseudovirus neutralization [28]: > 50 µg/mL; IC50, single-round pseudovirus neutralization [29]: > 50 µg/mL; neutralization IC50 [30]: 1.42 µg/mL; Fold IC50 increase relative to wild-type [31]: 7.7 fold; Fold IC50 increase relative to wild-type [32]: 0.8 fold; neutralization IC50 [33]: > 50 µg/mL
2F5 (antibody)	0.6	18.4	1.7	1	0.55	1.16	1.78	> 50	1.1	3.36	> 50	> 50		7.37	7.61	0.24	> 50	4.05			
2G12 (antibody)	> 50	> 50	> 50	0.06	0.08	> 50	9.23	> 50	> 50	0.48	4.84	31	> 50	> 50	0.55	> 50	> 50	0.12			
b12 (antibody)	> 50	> 50	0.13	> 50	0.75	> 50	> 50	> 50	> 50	> 50	> 50	3.77		> 50	4.17	> 50	34.1	1.39			
1443_C16 (PG16) (TCN-116) (antibody)	0.02	> 50	0.35	0.19	> 50	0.04	> 50	0.0067	0.27	0.28	> 50	1.21	0.1	2.65	19.3	0.03	0.102	0.004			
1495_C14 (PGC14) (antibody)	> 50	> 50	> 50	> 50	> 50	> 50	> 50	> 50	> 50	46	4	> 50	> 50	> 50	6	> 50	> 50	> 50			
5147_N06 (PGT-130) (antibody)																			9.73	> 50	IC50 [21]: > 50 µg/mL; Fold IC50 increase relative to wild-type [22]: 1.1 fold; neutralization IC50 [23]: > 50 µg/mL; IC50, pseudovirus neutralization [24]: 0.074 µg/mL; Fold IC50 increase relative to wild-type [25]: 2.5 fold; IC50 [26]: > 50 µg/mL; IC50 [27]: > 50 µg/mL; IC50, single-round pseudovirus neutralization [28]: > 50 µg/mL; IC50 (ug/ml), neutralizing activity [34]: 0.0089 µg/mL; IC50, single-round pseudovirus neutralization [29]: > 50 µg/mL; neutralization IC50 [30]: 0.039 µg/mL; Fold IC50 increase relative to wild-type [31]: 3.4 fold; Fold IC50 increase relative to wild-type [32]: 1.3 fold; neutralization IC50 [33]: > 50 µg/mL; neutralization IC50 [18]: 0.0378 µg/mL; neutralization IC80 [18]: 0.289 µg/mL; neutralization IC90 [18]: 2.31 µg/mL; neutralization IC95 [18]: > 10 µg/mL
